Laboratory results from patent US20240174744A1 (SCIRHOM, published 2024).

T1: human iRhom2 (inactive rhomboid protein 2, isoform 1), endogenously expressed on human cells (human, UniProt Q6PJF5 1-856)
T1 construct: also called RHBDF2; NP_078875.4
T1 sequence: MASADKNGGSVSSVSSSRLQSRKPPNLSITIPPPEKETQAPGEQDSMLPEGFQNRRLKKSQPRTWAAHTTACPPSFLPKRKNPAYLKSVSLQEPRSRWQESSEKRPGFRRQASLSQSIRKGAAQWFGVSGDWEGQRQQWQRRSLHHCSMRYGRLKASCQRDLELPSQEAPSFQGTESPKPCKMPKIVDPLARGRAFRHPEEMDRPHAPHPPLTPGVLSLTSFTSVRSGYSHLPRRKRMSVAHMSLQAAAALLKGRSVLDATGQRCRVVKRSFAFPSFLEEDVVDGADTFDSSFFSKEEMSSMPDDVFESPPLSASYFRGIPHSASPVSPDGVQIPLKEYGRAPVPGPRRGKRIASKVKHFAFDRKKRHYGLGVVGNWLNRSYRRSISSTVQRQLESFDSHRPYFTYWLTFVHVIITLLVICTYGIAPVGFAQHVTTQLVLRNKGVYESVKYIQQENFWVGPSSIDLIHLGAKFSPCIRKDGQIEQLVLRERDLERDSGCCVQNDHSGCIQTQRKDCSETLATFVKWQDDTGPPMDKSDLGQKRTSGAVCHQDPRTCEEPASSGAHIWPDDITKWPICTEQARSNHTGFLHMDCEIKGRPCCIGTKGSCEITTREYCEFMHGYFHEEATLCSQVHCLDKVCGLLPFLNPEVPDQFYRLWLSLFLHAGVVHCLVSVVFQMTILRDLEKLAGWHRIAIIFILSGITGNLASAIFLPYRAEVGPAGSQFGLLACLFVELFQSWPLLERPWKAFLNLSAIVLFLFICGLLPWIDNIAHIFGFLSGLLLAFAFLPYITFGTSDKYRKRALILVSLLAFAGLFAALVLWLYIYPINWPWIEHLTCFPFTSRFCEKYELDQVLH

B1: antibody 48 (antibody, V domains shown)
VH: QVQLQQSGTELVRPGTSVKVSCKASGYAFTNYLIEWVKQRPGQGLEWIGVINPGSGFTKYNEKFKGKATLTADKSSSTVYMHLSSLTSEDSAVYFCARGLYRAMDYWGQGTSVTVSS
VL: DIQMTQSPASQSASLGESVTITCLASQTIATWLAWYQQKPGKSPQLLIYGATTLADGVPSRFSGGGSGTKFSFKISSLQAEDFVSYYCQQLYSTPYTFGGGTKLEIK
notes: Mouse IgG, kappa light chain; also called clone #48; purified antibody 48
B2: antibody 50 (antibody, V domains shown)
VH: QVQLQQSGAELVRPGASVKVSCKASGYAFSNYLIEWVKQRPGQGLEWIGVINPGSGFTKYNEKFKGKATLTADKSSSTAYMQLSSLTSEDSAVYFCARGLYRAMDYWGQGTSVTVSS
VL: DIQMTQSPASQSASLGESVTITCLASQTIGTWLAWYQQKPGKSPQLLIYAAASLADGVPSRFSGGGSGTKFSFKISSLQAEDFVNYYCQQIYSTPYTFGGGTKLEIK
notes: Mouse IgG, kappa light chain; also called clone #50; purified antibody 50
B3: antibody 43 (antibody, V domains shown)
VH: QVALKESGPGILQPSQTLSLTCSFSGFSLSTFGMGVGWIRQSSGKGLEWLANIWWDDDKYYNPALKSRLTISKDASKNQAFLKIANVDTADTATYYCARIGNYGSNYWYFDVWGTGTTVTVSS
VL: QIVLTQSPAIMSASPGERVTMTCSANSRISYMYWYQQKPGSSPRLLIYDTSNLASGVPVRFSGSGSGTSYSLTISRMEAEDAATYNCQQWSSYPLTFGAGTKLELK
notes: Mouse IgG, kappa light chain; also called clone #43
B4: antibody 5 (antibody, V domains shown)
VH: QVTLKESGPGILQPSQTLSLTCSFSGFSLSTFGMGVGWIRQPSGKGLEWLAHIWWDDEKYYNSALKSRLTISKATSKNQAFLKIANVDTADTATYYCARISNYGSNYWYFNVWGTGTTVTVSS
VL: QVVLTQSPALMSASPGEKVTMTCSAGSSVSCMYWYQQKPGSSPRVLIYDTSNLASGVPARFTGSGSGTSYSLTISRMEAEDAASYYCQQWNSYPLTFGAGTKLELK
notes: Mouse IgG, kappa light chain; also called clone #5; purified antibody 5
B5: antibody 44 (antibody, V domains shown)
VH: QVTLKESGPGILQPSQTLSLTCSFSGFSLSTFGMGVGWIRQPSEKGLEWLAHIWWDDDKYYNPALKSRLTISKDTSKNQIFLKITNVDTAETATYYCSRIGNYGSNYWYFDVWGTGTTVTVSS
VL: QIVLTQSPAVMSASPGEKVTMTCTASSSVYYMYWYQQTPGSSPRLLIYDTSNLASGVPVRFSGSGSGTSYSLTISRMEAEDAATYYCQQWNTYPLTFGAGTKLELK
notes: Mouse IgG, kappa light chain; also called clone #44; m44
B6: antibody 42 (antibody, V domains shown)
VH: QVTLKESGPGILQPSQTLSLTCSLSGFSLSTFGRGVGWIRQPSGKGLEWLAHIWWDDEKYYNPALKSRLTISKDTSKNQVFLRIANVDTADTATYYCARIQNYGSNYWYFDVWGTGTTVTVSS
VL: LIVLTQSPAIMSASPGEKVTMTCGATSRISYMFWYQQKPGSSPRVLIYDTSNLASGVPVRFSGSGSGTSYSLTISRVEAEDVATYYCQQWNSYPLTFGAGTKLELK
notes: Mouse IgG, kappa light chain; also called clone #42; m42
B7: antibody 22 (antibody, V domains shown)
VH: QVTLKESGPGILQPSQTLSLTCSFSGFSLSTFGMGVGWIRQPSGKGLEWLAHIWWDDEKYYNSALKSRLTISKATSKNQVFLKIANVDTADTATYYCARISNYGSNYWYFNVWGTGTTVTVSS
VL: QVVLTQSPALMSASPGEKVTMTCSAGSSVSYMYWYQQKPGSSPRVLIYDTSNLASGVPARFTGSGSGTSYSLTISRMEAEDAATYYCQQWNSYPLTFGAGTKLELK
notes: Mouse IgG, kappa light chain; also called clone #22; m22
B8: antibody 16 (antibody, V domains shown)
VH: QVTLKESGPGILQPSQTLSLTCSFSGFSLSTFALGVGWIRQPSGRGLEWLAHIWWDDDKYYNPALKSRLTISKDTSKNHVFLKIANVDTADTATYYCARITTYYYGMDYWGQGTSVTVSS
VL: DIVLSQSPATLSVTPGDSVSLFCRASQSIGNHLHWYQQESHASPRLLIKYASQSISGIPSRFSGSGSGTDFTLSINSVETEDFGMYFCQQSYNWPLTFGAGTKLELK
notes: Mouse IgG, kappa light chain; also called clone #16; m16
B9: antibody 3 (antibody, V domains shown)
VH: QVTLKESGPGILQPSQTLSLTCSFSGFSLTTFAMGIGWVRQPSGKGLEWLAHIWWDGEKYNNPVLKSRLTISKDTSKNQVFLRIANVDTPDTATYYCARISSIYYIIDNWGQGTSVTVSS
VL: DIVLTQSPATLSVTPGHSVSLSCRASQSISNNLHWYQKKSHESPRLLIKYVSQSISGIPSRFSGSGSGTDFTLSINSVETEDFGMYFCQQSYNWPLTFGAGTKLELK
notes: Mouse IgG, kappa light chain; also called clone #3; purified antibody 3
B10: antibody 34 (antibody, V domains shown)
VH: QVTLKESGPGILQPSQTLSLTCSFSGFSLSTFSLGVGWIRQSSGKGLEWLAHIWWDDEKYYNPALKSRLTISKDTSKNQVFLKIANVDAADTATYYCARAYYSKSYYALDYWGQGTSVTVSS
VL: DIQMTQSPSSLSASLGERVSLTCRASQEISGYLSWLQQKPDGTIKRLIYAASTLDSGVPKRFSGSRSGSDYSLAISSLESEDFADYYCLQYANFPFTFGSGTKLEIK
notes: Mouse IgG, kappa light chain; also called clone #34; m34

Target: T1, human iRhom2 (inactive rhomboid protein …)
Assay: indirect FACS scatchard analysis on THP-1 cells (endogenous iRhom2)
Description: In brief, human THP-1 cells (American Type Culture Collection, USA) were harvested with 10 mM EDTA in PBS, washed and resuspended in FACS buffer (PBS, 3% FBS, 0.05% sodium azide), and seeded in Nunc U-bottom 96-well plates (Thermo Fisher Scientific, USA) at approximately 3×10⁵ cells per well. In order to pellet cells and remove supernatants, the plates were centrifuged at 1,500 rpm and 4° C. for 3 minutes. For primary staining, cells were resuspended in 100 μl per well of either FACS buffer alone (controls) or serial two-fold dilutions (in total 22 concentrations) of the purified antibodies 3, 5, 16, 22, 34, 42, 43, 44, 48, and 50 of the present disclosure in FACS buffer starting at 40 μg/ml and incubated on ice for 1 hour. Afterwards, plates were centrifuged at 1,500 rpm and 4° C. for 3 minutes and washed twice with 200 μl per well of FACS buffer. For secondary staining, cells were spun down and resuspended in 100 μl per well of PE-conjugated goat anti-mouse IgG F(ab′)2 detection fragment (Dianova, Germany) diluted 1:100 in FACS buffer. Protected from light, the cell suspensions were incubated on ice for 1 hour. Plates were then centrifuged at 1,500 rpm and 4° C. for 3 minutes and washed three times with 200 μl per well of FACS buffer. Finally, cells were resuspended in 150 μl per well of FACS buffer and analyzed using a BD Accuri™ C6 Plus flow cytometer (Becton Dickinson, Germany). Applying Prism8 software (GraphPad Sowtware, USA), the respective KD value for each of the antibodies of the present disclosure were calculated.

| Binder | Kd [nM] |
| --- | --- |
| B1 | 1.73 |
| B2 | 1.43 |
| B3 | 4.55 |
| B4 | 3.35 |
| B5 | 0.44 |
| B6 | 1.9 |
| B7 | 2.04 |
| B8 | 0.34 |
| B9 | 2.97 |
| B10 | 1.94 |
